According to publication PMC11253609, “Ancient nitrogenases are ATP dependent” (mBio, 2024):

T1: Extant Strep-NifD2K2 (dinitrogenase, MoFe protein), Azotobacter vinelandii strain DJ2102 (Azotobacter vinelandii) (UniProt P07328)
T1 sequence 1: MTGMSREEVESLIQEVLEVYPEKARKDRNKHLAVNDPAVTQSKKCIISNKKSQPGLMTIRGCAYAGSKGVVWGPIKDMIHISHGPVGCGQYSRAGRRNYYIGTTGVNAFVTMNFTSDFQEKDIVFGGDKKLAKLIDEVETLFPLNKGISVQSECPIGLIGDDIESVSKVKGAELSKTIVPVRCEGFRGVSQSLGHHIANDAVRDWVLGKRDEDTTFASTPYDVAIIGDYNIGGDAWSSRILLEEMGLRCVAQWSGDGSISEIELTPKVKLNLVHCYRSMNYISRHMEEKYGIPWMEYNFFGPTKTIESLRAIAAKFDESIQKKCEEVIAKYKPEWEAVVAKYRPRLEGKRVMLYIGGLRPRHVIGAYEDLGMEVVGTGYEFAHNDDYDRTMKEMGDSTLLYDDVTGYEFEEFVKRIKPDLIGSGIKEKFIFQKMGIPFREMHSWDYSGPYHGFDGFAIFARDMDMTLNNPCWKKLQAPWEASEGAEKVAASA
T1 sequence 2: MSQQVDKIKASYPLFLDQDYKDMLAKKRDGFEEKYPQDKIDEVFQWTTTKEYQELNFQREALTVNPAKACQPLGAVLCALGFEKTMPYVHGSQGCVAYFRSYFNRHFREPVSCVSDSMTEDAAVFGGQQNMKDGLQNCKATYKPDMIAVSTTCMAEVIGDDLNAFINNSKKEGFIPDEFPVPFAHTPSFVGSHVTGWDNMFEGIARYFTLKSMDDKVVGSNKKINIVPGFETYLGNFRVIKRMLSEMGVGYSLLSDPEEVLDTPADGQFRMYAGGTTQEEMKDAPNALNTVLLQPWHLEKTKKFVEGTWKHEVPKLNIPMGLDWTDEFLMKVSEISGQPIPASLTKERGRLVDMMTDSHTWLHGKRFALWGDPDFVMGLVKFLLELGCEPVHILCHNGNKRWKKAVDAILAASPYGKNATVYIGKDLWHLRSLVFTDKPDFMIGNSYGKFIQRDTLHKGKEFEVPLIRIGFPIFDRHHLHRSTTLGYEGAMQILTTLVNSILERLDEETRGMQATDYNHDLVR

T2: Extant Strep-II-tagged NifD (nitrogenase molybdenum-iron protein alpha chain), Azotobacter vinelandii strain … (Azotobacter vinelandii, UniProt P07328 1-492)
T2 construct: nitrogenase molybdenum-iron protein alpha chain NifD, Azotobacter vinelandii, UniProtKB P07328; expressed from the A. vinelandii genome; The end that carries the Strep-II tag is stated only for the ancestral NifD (N-terminus); also called Strep-II-tagged WT NifD; D subunit
T2 sequence (looked up): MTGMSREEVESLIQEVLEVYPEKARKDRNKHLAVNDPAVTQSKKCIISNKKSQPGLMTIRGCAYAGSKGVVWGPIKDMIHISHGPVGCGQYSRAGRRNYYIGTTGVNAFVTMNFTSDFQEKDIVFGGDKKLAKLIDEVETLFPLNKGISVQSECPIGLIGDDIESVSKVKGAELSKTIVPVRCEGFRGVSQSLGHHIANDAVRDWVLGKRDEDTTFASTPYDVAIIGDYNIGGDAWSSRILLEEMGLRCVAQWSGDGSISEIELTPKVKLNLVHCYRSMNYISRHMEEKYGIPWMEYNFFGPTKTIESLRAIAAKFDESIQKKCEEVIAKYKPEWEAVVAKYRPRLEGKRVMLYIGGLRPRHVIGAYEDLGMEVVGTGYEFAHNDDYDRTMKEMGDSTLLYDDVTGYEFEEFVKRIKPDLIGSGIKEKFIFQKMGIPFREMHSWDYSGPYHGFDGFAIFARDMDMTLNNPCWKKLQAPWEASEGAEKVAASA


What was measured:
[1] = biological target: T1, Extant Strep-NifD2K2 (dinitrogenase, MoFe protein), Azotobacter vinelandii strain DJ2102 (Azotobacter vinelandii)
[2] = biological target: T2, Extant Strep-II-tagged NifD …; test: co-purification (Strep-Tactin affinity chromatography) with densitometry of SDS-PAGE bands; Strep-II-tagged NifD captured on Strep-Tactin from A. vinelandii cells; NifK found with it on SDS-PAGE (Coomassie blue); anaerobic handling; conditions: partners not purified

Chain of Extant NifH2 (dinitrogenase reductase, nitrogenase iron protein 1), Azotobacter vinelandii strain DJ884 (P00459 2-290): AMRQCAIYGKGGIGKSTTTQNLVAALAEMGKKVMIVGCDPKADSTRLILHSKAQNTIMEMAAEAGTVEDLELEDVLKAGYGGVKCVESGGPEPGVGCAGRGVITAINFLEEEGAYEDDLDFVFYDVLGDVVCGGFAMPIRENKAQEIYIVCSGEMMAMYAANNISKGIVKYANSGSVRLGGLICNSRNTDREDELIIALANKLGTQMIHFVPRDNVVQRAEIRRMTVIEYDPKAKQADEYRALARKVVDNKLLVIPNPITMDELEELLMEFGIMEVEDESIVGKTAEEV

inorganic phosphate released per electron transferred (Pi/e- ratio) during N2 reduction, 2 min under 1 atm N2; 0.42 µM NifD2K2 and 8.4 µM NifH2, 10 mM MgATP [1] [ATP/e-] | stoichiometry N [2] | Molecule
2.8 |  | Extant NifH2 (dinitrogenase reductase, nitrogenase iron protein 1), Azotobacter vinelandii strain DJ884 (from UniProt P00459 2-290) (enzyme)
 | 0.93 D:K | Extant NifK (nitrogenase molybdenum-iron protein beta chain), Azotobacter vinelandii strain DJ2102 (enzyme, UniProt P07329 1-523, looked up, nitrogenase molybdenum-iron protein beta chain NifK, Azotobacter vinelandii, UniProtKB P07329; also called K subunit) MSQQVDKIKASYPLFLDQDYKDMLAKKRDGFEEKYPQDKIDEVFQWTTTKEYQELNFQREALTVNPAKACQPLGAVLCALGFEKTMPYVHGSQGCVAYFRSYFNRHFREPVSCVSDSMTEDAAVFGGQQNMKDGLQNCKATYKPDMIAVSTTCMAEVIGDDLNAFINNSKKEGFIPDEFPVPFAHTPSFVGSHVTGWDNMFEGIARYFTLKSMDDKVVGSNKKINIVPGFETYLGNFRVIKRMLSEMGVGYSLLSDPEEVLDTPADGQFRMYAGGTTQEEMKDAPNALNTVLLQPWHLEKTKKFVEGTWKHEVPKLNIPMGLDWTDEFLMKVSEISGQPIPASLTKERGRLVDMMTDSHTWLHGKRFALWGDPDFVMGLVKFLLELGCEPVHILCHNGNKRWKKAVDAILAASPYGKNATVYIGKDLWHLRSLVFTDKPDFMIGNSYGKFIQRDTLHKGKEFEVPLIRIGFPIFDRHHLHRSTTLGYEGAMQILTTLVNSILERLDEETRGMQATDYNHDLVR
